US20140087995A1 (published 2014)
Numbered stars: 1 amine (or outer) side, 2 acyl side, 3 side chain; on linkers, the order of the positions; unused ones are H or OH. Bridge positions count the residues as written; N and C are the ends. Side chains are listed from the residue outwards. Ends that are not written are not given here. * marks the point of attachment. C20 diacid = O=C(O)CCCCCCCCCCCCCCCCCCC(=O)*; γGlu = O=C(O)[C@H](CCC(=O)[*:2])N[*:1]; AEEA = NCCOCCOCC(=O)O

T1: human calcitonin receptor (human, UniProt P30988 25-474)
T1 sequence (looked up): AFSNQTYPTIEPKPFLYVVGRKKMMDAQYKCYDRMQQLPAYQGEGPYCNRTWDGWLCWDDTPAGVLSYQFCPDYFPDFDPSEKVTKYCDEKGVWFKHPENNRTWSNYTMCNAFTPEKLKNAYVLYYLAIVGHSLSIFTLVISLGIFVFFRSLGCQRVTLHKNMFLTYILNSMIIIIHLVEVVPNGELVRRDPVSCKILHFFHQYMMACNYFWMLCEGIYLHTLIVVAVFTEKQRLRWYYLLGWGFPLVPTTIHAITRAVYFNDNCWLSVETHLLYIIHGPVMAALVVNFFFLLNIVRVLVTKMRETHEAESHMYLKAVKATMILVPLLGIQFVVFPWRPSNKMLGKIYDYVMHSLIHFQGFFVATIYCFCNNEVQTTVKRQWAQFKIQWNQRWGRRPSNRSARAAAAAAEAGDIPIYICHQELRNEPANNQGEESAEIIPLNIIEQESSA

T2: human amylin 3(a) receptor (human calcitonin receptor co-expressed with RAMP-3) (human, UniProt P30988 25-474; O60896 24-148, limits assumed)
T2 sequence (looked up) 1: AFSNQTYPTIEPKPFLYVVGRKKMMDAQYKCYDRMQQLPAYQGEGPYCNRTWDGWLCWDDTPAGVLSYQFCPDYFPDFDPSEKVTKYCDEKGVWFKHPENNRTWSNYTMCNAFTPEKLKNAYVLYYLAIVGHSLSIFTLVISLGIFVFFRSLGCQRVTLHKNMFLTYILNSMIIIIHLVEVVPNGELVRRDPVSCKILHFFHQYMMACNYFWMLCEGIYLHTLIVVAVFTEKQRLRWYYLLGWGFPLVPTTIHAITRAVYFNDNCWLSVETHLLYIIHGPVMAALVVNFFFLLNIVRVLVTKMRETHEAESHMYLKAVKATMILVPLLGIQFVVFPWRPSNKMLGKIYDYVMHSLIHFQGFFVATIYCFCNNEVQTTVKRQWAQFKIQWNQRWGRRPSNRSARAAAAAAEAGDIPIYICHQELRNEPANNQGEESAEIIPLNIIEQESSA
T2 sequence (looked up) 2: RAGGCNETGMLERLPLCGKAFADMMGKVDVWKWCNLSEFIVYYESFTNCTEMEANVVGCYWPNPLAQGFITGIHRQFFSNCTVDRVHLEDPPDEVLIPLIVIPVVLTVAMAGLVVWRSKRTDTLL

B1: N^ε1-[2-[2-[2-[[2-[2-[2-[[(4S)-4-carboxy-4-(19-carboxynonadecanoylamino)butanoyl]amino]ethoxy]ethoxy]acetyl]amino]ethoxy]ethoxy]acetyl]-[Arg17,Pro21,Pro27,His34 … (peptide)
peptide: K([AEEA-AEEA-γGlu-C20 diacid])CNTATCATQRLANFLRHSSPNFGAIPSSTNVGHNTY-NH2
modifications: disulfide 2-7; N-terminus assumed
SMILES: CC[C@H](C)[C@H](NC(=O)[C@H](C)NC(=O)CNC(=O)[C@H](Cc1ccccc1)NC(=O)[C@H](CC(N)=O)NC(=O)[C@@H]1CCCN1C(=O)[C@H](CO)NC(=O)[C@H](CO)NC(=O)[C@H](Cc1c[nH]cn1)NC(=O)[C@H](CCCNC(=N)N)NC(=O)[C@H](CC(C)C)NC(=O)[C@H](Cc1ccccc1)NC(=O)[C@H](CC(N)=O)NC(=O)[C@H](C)NC(=O)[C@H](CC(C)C)NC(=O)[C@H](CCCNC(=N)N)NC(=O)[C@H](CCC(N)=O)NC(=O)[C@@H](NC(=O)[C@H](C)NC(=O)[C@@H]1CSSC[C@H](NC(=O)[C@@H](N)CCCCNC(=O)COCCOCCNC(=O)COCCOCCNC(=O)CC[C@H](NC(=O)CCCCCCCCCCCCCCCCCCC(=O)O)C(=O)O)C(=O)N[C@@H](CC(N)=O)C(=O)N[C@@H]([C@@H](C)O)C(=O)N[C@@H](C)C(=O)N[C@@H]([C@@H](C)O)C(=O)N1)[C@@H](C)O)C(=O)N1CCC[C@H]1C(=O)N[C@@H](CO)C(=O)N[C@@H](CO)C(=O)N[C@H](C(=O)N[C@@H](CC(N)=O)C(=O)N[C@H](C(=O)NCC(=O)N[C@@H](Cc1c[nH]cn1)C(=O)N[C@@H](CC(N)=O)C(=O)N[C@H](C(=O)N[C@@H](Cc1ccc(O)cc1)C(N)=O)[C@@H](C)O)C(C)C)[C@@H](C)O
notes: also called compound 97
B2: N^ε1-[2-[2-[2-[[(4S)-4-carboxy-4-(19-carboxynonadecanoylamino)butanoyl]amino]ethoxy]ethoxy]acetyl]-[Arg14,Arg17,Pro21,Pro27]-h-amylin (peptide)
peptide: K([AEEA-γGlu-C20 diacid])CNTATCATQRLARFLRHSSPNFGAIPSSTNVGSNTY-NH2
modifications: disulfide 2-7; N-terminus assumed
SMILES: CC[C@H](C)[C@H](NC(=O)[C@H](C)NC(=O)CNC(=O)[C@H](Cc1ccccc1)NC(=O)[C@H](CC(N)=O)NC(=O)[C@@H]1CCCN1C(=O)[C@H](CO)NC(=O)[C@H](CO)NC(=O)[C@H](Cc1c[nH]cn1)NC(=O)[C@H](CCCNC(=N)N)NC(=O)[C@H](CC(C)C)NC(=O)[C@H](Cc1ccccc1)NC(=O)[C@H](CCCNC(=N)N)NC(=O)[C@H](C)NC(=O)[C@H](CC(C)C)NC(=O)[C@H](CCCNC(=N)N)NC(=O)[C@H](CCC(N)=O)NC(=O)[C@@H](NC(=O)[C@H](C)NC(=O)[C@@H]1CSSC[C@H](NC(=O)[C@@H](N)CCCCNC(=O)COCCOCCNC(=O)CC[C@H](NC(=O)CCCCCCCCCCCCCCCCCCC(=O)O)C(=O)O)C(=O)N[C@@H](CC(N)=O)C(=O)N[C@@H]([C@@H](C)O)C(=O)N[C@@H](C)C(=O)N[C@@H]([C@@H](C)O)C(=O)N1)[C@@H](C)O)C(=O)N1CCC[C@H]1C(=O)N[C@@H](CO)C(=O)N[C@@H](CO)C(=O)N[C@H](C(=O)N[C@@H](CC(N)=O)C(=O)N[C@H](C(=O)NCC(=O)N[C@@H](CO)C(=O)N[C@@H](CC(N)=O)C(=O)N[C@H](C(=O)N[C@@H](Cc1ccc(O)cc1)C(N)=O)[C@@H](C)O)C(C)C)[C@@H](C)O
notes: also called compound 82
B3: N^ε1-[2-[2-[2-[[2-[2-[2-[[(4S)-4-carboxy-4-(19-carboxynonadecanoylamino)butanoyl]amino]ethoxy]ethoxy]acetyl]amino]ethoxy]ethoxy]acetyl]-[Arg17,Pro21,Pro27,Pro34 … (peptide)
peptide: K([AEEA-AEEA-γGlu-C20 diacid])CNTATCATQRLANFLRHSSPNFGAIPSSTNVGPNTY-NH2
modifications: disulfide 2-7; N-terminus assumed
SMILES: CC[C@H](C)[C@H](NC(=O)[C@H](C)NC(=O)CNC(=O)[C@H](Cc1ccccc1)NC(=O)[C@H](CC(N)=O)NC(=O)[C@@H]1CCCN1C(=O)[C@H](CO)NC(=O)[C@H](CO)NC(=O)[C@H](Cc1c[nH]cn1)NC(=O)[C@H](CCCNC(=N)N)NC(=O)[C@H](CC(C)C)NC(=O)[C@H](Cc1ccccc1)NC(=O)[C@H](CC(N)=O)NC(=O)[C@H](C)NC(=O)[C@H](CC(C)C)NC(=O)[C@H](CCCNC(=N)N)NC(=O)[C@H](CCC(N)=O)NC(=O)[C@@H](NC(=O)[C@H](C)NC(=O)[C@@H]1CSSC[C@H](NC(=O)[C@@H](N)CCCCNC(=O)COCCOCCNC(=O)COCCOCCNC(=O)CC[C@H](NC(=O)CCCCCCCCCCCCCCCCCCC(=O)O)C(=O)O)C(=O)N[C@@H](CC(N)=O)C(=O)N[C@@H]([C@@H](C)O)C(=O)N[C@@H](C)C(=O)N[C@@H]([C@@H](C)O)C(=O)N1)[C@@H](C)O)C(=O)N1CCC[C@H]1C(=O)N[C@@H](CO)C(=O)N[C@@H](CO)C(=O)N[C@H](C(=O)N[C@@H](CC(N)=O)C(=O)N[C@H](C(=O)NCC(=O)N1CCC[C@H]1C(=O)N[C@@H](CC(N)=O)C(=O)N[C@H](C(=O)N[C@@H](Cc1ccc(O)cc1)C(N)=O)[C@@H](C)O)C(C)C)[C@@H](C)O
notes: also called compound 98
B4: N^ε1-[2-[2-[2-[[(4S)-4-carboxy-4-(19-carboxynonadecanoylamino)butanoyl]amino]ethoxy]ethoxy]acetyl]-[His14,Arg17,Pro21,Pro27,His34]-h-amylin (peptide)
peptide: K([AEEA-γGlu-C20 diacid])CNTATCATQRLAHFLRHSSPNFGAIPSSTNVGHNTY-NH2
modifications: disulfide 2-7; N-terminus assumed
SMILES: CC[C@H](C)[C@H](NC(=O)[C@H](C)NC(=O)CNC(=O)[C@H](Cc1ccccc1)NC(=O)[C@H](CC(N)=O)NC(=O)[C@@H]1CCCN1C(=O)[C@H](CO)NC(=O)[C@H](CO)NC(=O)[C@H](Cc1c[nH]cn1)NC(=O)[C@H](CCCNC(=N)N)NC(=O)[C@H](CC(C)C)NC(=O)[C@H](Cc1ccccc1)NC(=O)[C@H](Cc1c[nH]cn1)NC(=O)[C@H](C)NC(=O)[C@H](CC(C)C)NC(=O)[C@H](CCCNC(=N)N)NC(=O)[C@H](CCC(N)=O)NC(=O)[C@@H](NC(=O)[C@H](C)NC(=O)[C@@H]1CSSC[C@H](NC(=O)[C@@H](N)CCCCNC(=O)COCCOCCNC(=O)CC[C@H](NC(=O)CCCCCCCCCCCCCCCCCCC(=O)O)C(=O)O)C(=O)N[C@@H](CC(N)=O)C(=O)N[C@@H]([C@@H](C)O)C(=O)N[C@@H](C)C(=O)N[C@@H]([C@@H](C)O)C(=O)N1)[C@@H](C)O)C(=O)N1CCC[C@H]1C(=O)N[C@@H](CO)C(=O)N[C@@H](CO)C(=O)N[C@H](C(=O)N[C@@H](CC(N)=O)C(=O)N[C@H](C(=O)NCC(=O)N[C@@H](Cc1c[nH]cn1)C(=O)N[C@@H](CC(N)=O)C(=O)N[C@H](C(=O)N[C@@H](Cc1ccc(O)cc1)C(N)=O)[C@@H](C)O)C(C)C)[C@@H](C)O
notes: also called compound 80
B5: N^ε1-[2-[2-[2-[[(4S)-4-carboxy-4-(19-carboxynonadecanoylamino)butanoyl]amino]ethoxy]ethoxy]acetyl]-[His14,Arg17,Pro21,Pro27,Arg34]-h-amylin (peptide)
peptide: K([AEEA-γGlu-C20 diacid])CNTATCATQRLAHFLRHSSPNFGAIPSSTNVGRNTY-NH2
modifications: disulfide 2-7; N-terminus assumed
SMILES: CC[C@H](C)[C@H](NC(=O)[C@H](C)NC(=O)CNC(=O)[C@H](Cc1ccccc1)NC(=O)[C@H](CC(N)=O)NC(=O)[C@@H]1CCCN1C(=O)[C@H](CO)NC(=O)[C@H](CO)NC(=O)[C@H](Cc1c[nH]cn1)NC(=O)[C@H](CCCNC(=N)N)NC(=O)[C@H](CC(C)C)NC(=O)[C@H](Cc1ccccc1)NC(=O)[C@H](Cc1c[nH]cn1)NC(=O)[C@H](C)NC(=O)[C@H](CC(C)C)NC(=O)[C@H](CCCNC(=N)N)NC(=O)[C@H](CCC(N)=O)NC(=O)[C@@H](NC(=O)[C@H](C)NC(=O)[C@@H]1CSSC[C@H](NC(=O)[C@@H](N)CCCCNC(=O)COCCOCCNC(=O)CC[C@H](NC(=O)CCCCCCCCCCCCCCCCCCC(=O)O)C(=O)O)C(=O)N[C@@H](CC(N)=O)C(=O)N[C@@H]([C@@H](C)O)C(=O)N[C@@H](C)C(=O)N[C@@H]([C@@H](C)O)C(=O)N1)[C@@H](C)O)C(=O)N1CCC[C@H]1C(=O)N[C@@H](CO)C(=O)N[C@@H](CO)C(=O)N[C@H](C(=O)N[C@@H](CC(N)=O)C(=O)N[C@H](C(=O)NCC(=O)N[C@@H](CCCNC(=N)N)C(=O)N[C@@H](CC(N)=O)C(=O)N[C@H](C(=O)N[C@@H](Cc1ccc(O)cc1)C(N)=O)[C@@H](C)O)C(C)C)[C@@H](C)O
notes: also called compound 84
B6: N^ε1-[2-[2-[2-[[2-[2-[2-[[(4S)-4-carboxy-4-(19-carboxynonadecanoylamino)butanoyl]amino]ethoxy]ethoxy]acetyl]amino]ethoxy]ethoxy]acetyl]-[Arg17,Pro21,Pro27,Pro31 … (peptide)
peptide: K([AEEA-AEEA-γGlu-C20 diacid])CNTATCATQRLANFLRHSSPNFGAIPSSTPVGSNTY-NH2
modifications: disulfide 2-7; N-terminus assumed
SMILES: CC[C@H](C)[C@H](NC(=O)[C@H](C)NC(=O)CNC(=O)[C@H](Cc1ccccc1)NC(=O)[C@H](CC(N)=O)NC(=O)[C@@H]1CCCN1C(=O)[C@H](CO)NC(=O)[C@H](CO)NC(=O)[C@H](Cc1c[nH]cn1)NC(=O)[C@H](CCCNC(=N)N)NC(=O)[C@H](CC(C)C)NC(=O)[C@H](Cc1ccccc1)NC(=O)[C@H](CC(N)=O)NC(=O)[C@H](C)NC(=O)[C@H](CC(C)C)NC(=O)[C@H](CCCNC(=N)N)NC(=O)[C@H](CCC(N)=O)NC(=O)[C@@H](NC(=O)[C@H](C)NC(=O)[C@@H]1CSSC[C@H](NC(=O)[C@@H](N)CCCCNC(=O)COCCOCCNC(=O)COCCOCCNC(=O)CC[C@H](NC(=O)CCCCCCCCCCCCCCCCCCC(=O)O)C(=O)O)C(=O)N[C@@H](CC(N)=O)C(=O)N[C@@H]([C@@H](C)O)C(=O)N[C@@H](C)C(=O)N[C@@H]([C@@H](C)O)C(=O)N1)[C@@H](C)O)C(=O)N1CCC[C@H]1C(=O)N[C@@H](CO)C(=O)N[C@@H](CO)C(=O)N[C@H](C(=O)N1CCC[C@H]1C(=O)N[C@H](C(=O)NCC(=O)N[C@@H](CO)C(=O)N[C@@H](CC(N)=O)C(=O)N[C@H](C(=O)N[C@@H](Cc1ccc(O)cc1)C(N)=O)[C@@H](C)O)C(C)C)[C@@H](C)O
notes: also called compound 96

Tests used:
[1] = target: T1, human calcitonin receptor; test: cell-based or functional assay
[2] = target: T2, human amylin 3(a) receptor (human …); test: cell-based or functional assay

Row | Ratio hCT/hAmylin funct. [1] | hCTR funct. EC50 [1] [pM] | hAmylin-R funct. EC50 [2] [pM] | Binder
1 | 33 | 11800 | 356 | B1
2 | 59.2 | 12700 | 215 | B2
3 | 19.5 | 1630 | 84 | B3
4 | 15.4 | 2140 | 139 | B4
5 | 32.5 | 5490 | 169 | B5
6 | 21 | 3800 | 181 | B6
